In experiment [1] the target is Zika virus (ZIKV) virions, envelope protein E (Zika virus).
For experiment [2], the target named is DENV.
The target in experiment [3] is Dengue virus serotype 4 (DENV4) virions, envelope protein E (Dengue virus 4).
For experiment [4] the target is unchanged. This is another data set of the same source.
Experiment [5] addresses Dakar (Zika virus).
Experiment [6] deals with MR766.
Experiment [7] concerns the target H/PF/2013 (Zika virus).
Experiment [8] deals with Zika virus (ZIKV) virions, envelope protein E (Zika virus). This is another data set of the same source.

Like-named read-outs stand apart in the source and are kept apart here.

In experiment [1], 1M7 (antibody) displayed an IC50 (read off the curve) of 0.09 µg/mL.

For the substance 2D22 (antibody), the 50% effective concentration (EC50 (read off the curve)) in experiment [2] turned out to be 0.08 µg/mL.

In turn, EDE1 mAb C8 (antibody) showed an IC50 (read off the curve) in experiment [1] of 0.2 µg/mL.

Take EDE1 mAb C10 (antibody): the EC50 (read off the curve) was 0.08 µg/mL in experiment [2] and 0.2 µg/mL in experiment [3]. For the same substance, the FRNT50 (focus reduction neutralization on Vero cells) worked out at 88.9 ng/mL in experiment [4], 28.5 ng/mL in experiment [5], 0.2 ng/mL in experiment [6] and 16.2 ng/mL in experiment [7].

ZKA78 (antibody) showed an IC50 (read off the curve) in experiment [1] of 0.2 µg/mL.

In experiment [8], “ZKA190, human ZIKV-specific mAb (antibody)” displayed an IC50 (read off the curve) of 0.07 µg/mL.

Broadly, the EC50 (read off the curve) is the concentration needed to bring the measured effect to its halfway point. Read a high EC50 (read off the curve) as lower potency in that assay.
